The supplement of paper PMC9732359
± gives the uncertainty stated by the source.

Assay: protein stability index of a GFP-peptide fusion (yeast GPS) (PSI 1-4); higher = more stable; sorted into four equal gates, so the index is relative within each strain
Method in brief: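 Plasmids in a pooled yeast library fused tiled 17-residue yeast protein peptides downstream of GFP and also expressed Cherry. Mid-log cultures grown without leucine were sorted into four equal gates by GFP/Cherry fluorescence ratio. Each gate's plasmids were PCR-amplified and Illumina-sequenced, and reads were matched to strains by barcodes. The protein stability index is derived by multiplying each gate's read frequency by its gate number and summing the results.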

Sequence | protein stability index (pdr5∆) | protein stability index (ubr1∆) | protein stability index (doa10∆) | protein stability index (san1∆)
VAGGVAGGEAGEAEAEK [RPP1A] | 3.26 ± 0.17 | 3.45 ± 0.13 |  | 
KDQALIGTINSIVHINS [SIR2] | 1.66 ± 0.032 | 1.41 ± 0.027 | 1.69 ± 0.035 | 1.75 ± 0.049
TRDETVSLIKKYKLISR [YML103C/NUP188] | 2.56 ± 0.13 | 2.41 ± 0.12 | 2.48 ± 0.1 | 2.51 ± 0.11
LLAKRLSERKAEKAEIR [RPS6A] | 3.54 ± 0.11 | 3.33 ± 0.084 | 3.35 ± 0.092 | 3.18 ± 0.086
EFLKWTPNVNVLVLHGD [ISW2] | 1.69 ± 0.06 | 1.84 ± 0.082 | 1.69 ± 0.064 | 1.53 ± 0.12
SQLLLERLMISSDAFEV [RET1] | 2.4 ± 0.044 | 1.86 ± 0.049 | 1.8 ± 0.08 | 1.98 ± 0.058
SDPLTVFSESCSNESFA [SNU114] | 2.96 ± 0.057 | 2.96 ± 0.038 | 2.83 ± 0.055 | 2.58 ± 0.047
SSNPLGITGNLDRIPMH [COB] | 2.52 ± 0.077 | 2.49 ± 0.094 | 2.62 ± 0.098 | 2.44 ± 0.065
QTDAIKSDEAKWKPVLS [RPN5] | 2.99 ± 0.19 | 3.2 ± 0.16 | 2.62 ± 0.14 | 3.27 ± 0.075
IPHFIDNNSSLNVSNTK [PRP8] | 2.42 ± 0.069 | 2.51 ± 0.06 | 2.36 ± 0.08 | 2.66 ± 0.053
NPYNTRSNKIKVVKTPG [RPL34A] | 1.93 ± 0.045 | 2.15 ± 0.039 | 1.98 ± 0.065 | 2.16 ± 0.08
RSDLQSKIQEIESIRSC [YIL149C/MLP2] | 2.79 ± 0.09 | 2.52 ± 0.089 | 1.89 ± 0.058 | 2.67 ± 0.099
WVTEVLGNDIPHDLIIG [BRR2] | 2.95 ± 0.056 | 2.89 ± 0.046 | 2.17 ± 0.042 | 2.29 ± 0.063
ESDTGLAPSHLWDIMGD [RPT1] |  |  | 2.91 ± 0.16 | 3.06 ± 0.12
ALALYVDAYRRLENKLS [SRP68] | 1.42 ± 0.11 | 1.52 ± 0.1 | 1.78 ± 0.2 | 
RLTGSLLAHKVADEEAN [RPC37] | 1.32 ± 0.068 | 1.06 ± 0.056 | 1.22 ± 0.057 | 1.16 ± 0.12
DIYFKLKKLEKEYELLT [RPT3] | 2.51 ± 0.081 | 1.98 ± 0.057 | 2.74 ± 0.074 | 2.29 ± 0.14
IVHHPYQSLKQIVQVLK [SSN8] | 1.58 ± 0.099 | 1.25 ± 0.072 | 1.24 ± 0.061 | 1.18 ± 0.14
PQQQQQHLQFNGSSDAS [YDL088C/ASM4] | 2.22 ± 0.048 | 2.27 ± 0.03 | 2.41 ± 0.042 | 2.04 ± 0.066
AQKRVVSYMMPSLYRLL [SRB8] | 1.19 ± 0.067 | 1.29 ± 0.053 | 1.18 ± 0.11 | 1.1 ± 0.12
TNIHEPQYINYSSIPSL [SSN2] | 2.46 ± 0.14 |  | 2.89 ± 0.23 | 
SQNDGFVIIRGSQILSG [RPO31] | 3.13 ± 0.17 | 2.61 ± 0.29 |  | 2.86 ± 0.16
VQGLLQNAAANAEAKGL [RPL17A] | 2.76 ± 0.1 | 2.4 ± 0.12 | 2.3 ± 0.094 | 2.06 ± 0.1
LRNKLIESNKLAGVLYE [RRP6] | 3.04 ± 0.21 | 2.73 ± 0.18 | 2.72 ± 0.16 | 2.79 ± 0.28
DTQTFSVLLQQLLTPGS [YGL172W/NUP49] | 1.43 ± 0.095 | 1.48 ± 0.058 | 1.31 ± 0.13 | 1.36 ± 0.1
TVQENELLKSSLQKAGS [AAR2] | 3.21 ± 0.088 | 3.13 ± 0.084 | 3.17 ± 0.11 | 3.01 ± 0.073

Sequence | protein stability index (pdr5∆) | protein stability index (ubr1∆) | protein stability index (doa10∆) | protein stability index (san1∆)
FGAKMSRTLILSILNEI [SIN4] | 1.42 ± 0.044 | 1.68 ± 0.039 | 1.84 ± 0.063 | 1.36 ± 0.088
IAFASNYGIVELDPECQ [RRP43] | 2.68 ± 0.055 | 2.53 ± 0.08 | 2.34 ± 0.083 | 2.54 ± 0.059
TLQDFHLIFSNARIYNT [SNF2] | 2.17 ± 0.1 | 2.79 ± 0.073 | 2.25 ± 0.081 | 1.63 ± 0.18
SPPPQTHQSPPPPPQQS [SNF5] | 2.72 ± 0.029 | 2.74 ± 0.03 | 2.87 ± 0.034 | 2.75 ± 0.032
TSTGTTIVGVKFNNGVV [PUP1] | 3.14 ± 0.11 | 2.71 ± 0.095 | 2.55 ± 0.12 | 3.01 ± 0.14
LICSIGLHSSEYKLRSL [ECM29] | 2.41 ± 0.05 | 2.56 ± 0.038 | 2.03 ± 0.046 | 2.26 ± 0.07
VPATAAPGTEAGIVPVS [SWI1] | 3 ± 0.084 | 3.15 ± 0.07 | 3.1 ± 0.069 | 3.14 ± 0.066
YEKNFEATLESKLKEEE [ESC2] | 3.13 ± 0.17 | 3.18 ± 0.13 | 3.09 ± 0.12 | 3.03 ± 0.071
DTSYKIDGKTVSYKDYS [SMC1] | 2.79 ± 0.042 | 2.95 ± 0.04 | 2.6 ± 0.049 | 2.58 ± 0.046
KGDINPEVSMIRDIREK [RPB2] | 2.36 ± 0.082 | 2.68 ± 0.13 | 3.29 ± 0.16 | 3.4 ± 0.075
DNKEKDFELEISWCSLS [PRE10] | 3.13 ± 0.14 | 3.13 ± 0.088 | 3.54 ± 0.12 | 2.87 ± 0.13
RKFALEKLYIFYKLNMP [SRP72] | 1.79 ± 0.057 | 1.29 ± 0.039 | 1.99 ± 0.046 | 1.44 ± 0.085
LIQKLQNSANNNSDDED [IRR1] | 3.08 ± 0.074 | 3.38 ± 0.083 | 2.98 ± 0.1 | 3.26 ± 0.05
SLEALIDLCHDFPHLTP [YCS4] | 2.35 ± 0.036 | 2.25 ± 0.031 | 2.31 ± 0.042 | 2.56 ± 0.049
LYRLSTPLRDEVTDKNY [PRP8] | 2.88 ± 0.066 | 3.11 ± 0.059 | 3.13 ± 0.096 | 3.02 ± 0.067
SLNSMTNAKLPNVDLVT [RGR1] | 2.74 ± 0.064 | 2.46 ± 0.041 | 2.53 ± 0.087 | 2.52 ± 0.061
GFSMNNPYNIVPQGKIV [SMC3] | 2.93 ± 0.071 | 3.09 ± 0.062 | 3.05 ± 0.11 | 3.08 ± 0.085
IKHSKCRQEFLERVKAN [RPL21A] | 3.1 ± 0.23 |  |  | 
FEQKGSQTTTNDSKEES [YLR335W/NUP2] | 3.13 ± 0.077 | 3.23 ± 0.05 | 3.27 ± 0.12 | 2.98 ± 0.11
VDEPMTSAVELGAIEQI [YJL039C/NUP192] | 3.66 ± 0.17 | 2.87 ± 0.28 | 3.41 ± 0.3 | 3 ± 0.16
RTLLTEEIEPKLEKLRN [SMC2] | 3 ± 0.068 | 3.21 ± 0.054 | 3.02 ± 0.074 | 3.18 ± 0.042
DHLKLVSLFSNLRHERN [YIL149C/MLP2] | 2.67 ± 0.19 | 2.44 ± 0.097 | 2.41 ± 0.092 | 2.5 ± 0.26
SIPPATIETFNEAALVV [RPB5] | 2.46 ± 0.15 | 3.15 ± 0.13 | 3.09 ± 0.18 | 2.02 ± 0.11
QLIDQFEWDISNSDNCP [SNF5] | 3.18 ± 0.12 | 3.27 ± 0.065 | 3.02 ± 0.092 | 3.21 ± 0.058
FMLSDDEGMESIEMEEE [RRI2] | 3.78 ± 0.29 |  | 2.59 ± 0.22 | 3.38 ± 0.097
ESGEFDFDLFKEVLPDL [YJL039C/NUP192] | 3.26 ± 0.092 | 3.23 ± 0.079 | 3.43 ± 0.13 | 3.17 ± 0.063
